In patent US20020106772A1 (WASHINGTON STATE UNIVERSITY RESEARCH FOUNDATION, published 2002):

Target: T1, geranyl diphosphate synthase small subunit from Mentha, full-length preprotein encoded by the cDNA insert of … (Mentha piperita (peppermint oil gland …))
T1 construct: also called Mp13.18 protein; 28 kDa protein
T1 chain: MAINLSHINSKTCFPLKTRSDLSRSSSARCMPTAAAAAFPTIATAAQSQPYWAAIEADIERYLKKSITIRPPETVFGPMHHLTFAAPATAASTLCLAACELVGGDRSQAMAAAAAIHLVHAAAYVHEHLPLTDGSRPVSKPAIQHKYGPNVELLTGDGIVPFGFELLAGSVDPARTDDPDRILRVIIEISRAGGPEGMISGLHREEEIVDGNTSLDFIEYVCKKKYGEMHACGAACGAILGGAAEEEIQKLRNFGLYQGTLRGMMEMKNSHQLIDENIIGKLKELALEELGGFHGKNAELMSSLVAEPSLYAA
Assay: co-expression in E. coli, anion-exchange chromatography, activity assay
Procedure: The transformed bacteria were then induced with 1 mM IPTG and allowed to express for 24 h at 15° C. The bacteria were harvested by centrifugation, washed once with Tris buffer (pH 7.0) containing 50 mM KCl, and resuspended in 25 ml sonication buffer (25 mM Hepes, pH 7.2, 10 mM MgCl₂, 10% glycerol, 1 mM DTT, 1 mM EDTA and 1 mM benzamidine) and disrupted by brief sonication (VirSonic, 25% power, two 30 s bursts, 0-4° C.). The sonicate was centrifuged at 12,000 g (30 min), then at 195,000 g (90 min). The supernatant (soluble enzyme fraction) was loaded onto an HR 5/5 column containing Source 15Q anion-exchange separation medium (Pharmacia Biotech) that had been equilibrated with Hepes buffer (25 mM, pH 7.5) containing 10% glycerol, 10 mM MgCl₂, 1 mM DTT and 1 mM benzamidine. A step gradient of KCl (0-85 mM (10 ml); 85 mM (15 ml); 85-600 mM (20 ml)) was applied, and 2 ml fractions were collected and assayed for prenyltransferase activity using [¹⁴C]IPP and DMAPP (or GPP or FPP) as cosubstrates as described above. […]

B1: geranyl diphosphate synthase large subunit from peppermint (Mentha piperita), full-length preprotein encoded by the cDNA insert of pMp23.10, expressed from … (enzyme)
chain: MSALVNPVAKWPQTIGVKDVHGGRRRRSRSTLFQSHPLRTEMPFSLYFSSPLKAPATFSVSAVYTKEGSEIRDKDPAPSTSPAFDFDGYMLRKAKSVNKALEAAVQMKEPLKIHESMRYSLLAGGKRVRPMLCIAACELVGGDESTAMPAACAVEMIHTMSLMHDDLPCMDNDDLRRGKPTNHMAFGESVAVLAGDALLSFAFEHVAAATKGAPPERIVRVLGELAVSIGSEGLVAGQVVDVCSEGMAEVGLDHLEFIHHHKTAALLQGSVVLGAILGGGKEEEVAKLRKFANCIGLLFQVVDDILDVTKSSKELGKTAGKDLVADKTTYPKLIGVEKSKEFADRLNREAQEQLLHFHPHRAAPLIALANYIAYRDN
notes: also called Mp23.10 protein; pMp23.10 protein
- binding result: binds
